B1: 2xGLP-1 (7-37) A8G DOM7h-14 dAb fusion (DAT0114) (other)
chain: HGEGTFTSDVSSYLEGQAAKEFIAWLVKGRHGEGTFTSDVSSYLEGQAAKEFIAWLVKGRDIQMTQSPSSLSASVGDRVTITCRASQWIGSQLSWYQQKPGKAPKLLIMWRSSLQSGVPSRFSGSGSGTDFTLTISSLQPEDFATYYCAQGAALPRTFGQGTKVEIKA
notes: also called 2xGLP-1 (7-37) A8G DOM7h-14 fusion; 2xGLP-1 A8G DOM7h-14 fusion
B2: Rat serum albumin (other, UniProt P02770 25-608, looked up)
chain: EAHKSEIAHRFKDLGEQHFKGLVLIAFSQYLQKCPYEEHIKLVQEVTDFAKTCVADENAENCDKSIHTLFGDKLCAIPKLRDNYGELADCCAKQEPERNECFLQHKDDNPNLPPFQRPEAEAMCTSFQENPTSFLGHYLHEVARRHPYFYAPELLYYAEKYNEVLTQCCTESDKAACLTPKLDAVKEKALVAAVRQRMKCSSMQRFGERAFKAWAVARMSQRFPNAEFAEITKLATDVTKINKECCHGDLLECADDRAELAKYMCENQATISSKLQACCDKPVLQKSQCLAEIEHDNIPADLPSIAADFVEDKEVCKNYAEAKDVFLGTFLYEYSRRHPDYSVSLLLRLAKKYEATLEKCCAEGDPPACYGTVLAEFQPLVEEPKNLVKTNCELYEKLGEYGFQNAVLVRYTQKAPQVSTPTLVEAARNLGRVGTKCCTLPEAQRLPCVEDYLSAILNRLCVLHEKTPVSEKVTKCCSGSLVERRPCFSALTVDETYVPKEFKAETFTFHSDICTLPDKEKQIKKQTALAELVKHKPKATEDQLKTVMGDFAQFVDKCCKAADKDNCFATEGPNLVARSKEALA
notes: also called RSA
B3: GLP-1 (7-37) A8G, helical linker, DOM7h-14 dAb fusion (DAT0120) (other)
chain: HGEGTFTSDVSSYLEGQAAKEFIAWLVKGRGKEAAAKEAAAKEAAAKELAAKEAAAKEAAAKEAAAKELAADIQMTQSPSSLSASVGDRVTITCRASQWIGSQLSWYQQKPGKAPKLLIMWRSSLQSGVPSRFSGSGSGTDFTLTISSLQPEDFATYYCAQGAALPRTFGQGTKVEIKR
notes: also called GLP-1 A8G, helical linker, DOM7h-14 fusion; GLP-1 (7-37) A8G, helical linker, DOM7h-14 fusion

The target in the assay “Rat serum albumin” is B2. In words: SPR (Biacore), albumin immobilised on CM5 chip, fusion in solution. (SPR reads the build-up and loss of mass on a sensor chip optically.)
Procedure: (§1) The analysis was performed using a CMS Biacore chip (carboxymethylated dextran matrix) that was coated with serum albumin. About 1000 resonance units (RUs) of each serum albumin to be tested (human, rat and mouse serum albumin) was immobilised in acetate buffer pH 5.5. […] Affinity (KD) was calculated from the BIACORE traces by fitting on-rate and off-rate curves to traces generated by concentrations of dAb in the region of the KD.
Another assay concerns the target T1, Mouse serum albumin (mouse, UniProt P07724 25-608).
T1 construct: also called MSA
The description is as above.

The target in a further assay is T2, Human serum albumin (human, UniProt P02768 25-609).
T2 construct: also called HSA
Described as above.

For assay [1], the target named is T3, Exendin 4 (G4S linker)3 DOM7h-14 dAb fusion (DAT0115).
T3 construct: also called Exendin 4 (G4S)3 DOM7h-14 fusion
The assay is described as follows: SPR (Biacore), biotinylated albumin on streptavidin chip, fusion in solution.
Procedure: The analysis was performed using a streptavidin chip (SA) coated with biotinylated serum albumin. 200-1000 resonance units (RUs) of each serum albumin was immobilised on the chip. Flow cell 1 was uncoated, flow cell 2 was coated with HSA, flow cell 3 was coated with RSA and flow cell 4 was coated with CSA.
Affinity (KD) was calculated from the BIACORE traces by fitting on-rate and off-rate curves to traces generated by concentrations of dAb in the region of the KD.

This passage reports Kd results from patent US20130189255A1 (GlaxoSmithKline, published 2013).

T1 sequence (P07724 25-608 limits assumed): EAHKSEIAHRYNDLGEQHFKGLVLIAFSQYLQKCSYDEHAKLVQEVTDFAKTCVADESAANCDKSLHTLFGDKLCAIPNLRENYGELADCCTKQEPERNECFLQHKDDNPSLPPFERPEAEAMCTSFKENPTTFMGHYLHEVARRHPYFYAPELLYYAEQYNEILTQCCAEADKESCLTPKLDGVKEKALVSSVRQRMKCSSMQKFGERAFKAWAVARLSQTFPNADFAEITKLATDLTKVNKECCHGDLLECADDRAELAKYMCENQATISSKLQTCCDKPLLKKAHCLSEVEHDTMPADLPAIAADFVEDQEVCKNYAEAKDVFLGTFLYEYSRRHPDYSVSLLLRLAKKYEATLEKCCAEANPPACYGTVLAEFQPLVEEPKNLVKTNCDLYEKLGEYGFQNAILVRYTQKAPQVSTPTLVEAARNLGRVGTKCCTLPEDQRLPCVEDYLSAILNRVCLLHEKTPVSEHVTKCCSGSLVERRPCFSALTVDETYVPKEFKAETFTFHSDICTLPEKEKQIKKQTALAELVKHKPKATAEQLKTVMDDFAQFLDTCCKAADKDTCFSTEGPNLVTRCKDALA
Procedure for Human serum albumin: as §1
Procedure for Mouse serum albumin: as §1

Consider B1, for which the Kd in the assay with Rat serum albumin worked out at 700 nM; with Mouse serum albumin it was 130 nM; in the assay with Human serum albumin it was 150 nM.

B2: the Kd in assay [1] amounted to 2000 nM.

In the case of B3, the Kd worked out at 800 nM with Rat serum albumin, 110 nM in the assay with Mouse serum albumin and 110 nM with Human serum albumin.

By Kd is commonly meant the equilibrium constant for the complex coming apart. A high value points to a looser complex.
